# Measurements published in US20240360208A1 (Hoffmann-La Roche, published 2024).
# T1: human CCL8 (MCP2) - wild type (wt) (human, UniProt P80075 24-99)
# T1 construct: also called huCCL8
# T1 sequence: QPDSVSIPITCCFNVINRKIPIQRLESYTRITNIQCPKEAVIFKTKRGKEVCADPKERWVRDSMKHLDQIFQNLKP
# Experiments:
# [1] = target: T2, human CCL2 (MCP1) - wild type (wt) (human, UniProt P13500 24-99); assay: SPR T200, 25 C, anti-human Fc capture, 1:1 model, pH 7.1
# T2 construct: Made in-house or bought (R&D Systems 279-MC), depending on the assay; can form dimers; also called wt human CCL2; WT human CCL2
# Protocol: (§1) An antibody capture system was established. 13000 MAb<h-Fc-pan>M-R10Z8E9-IgG (Roche) were immobilized at 25° C. at 18 μg/ml in 10 mM sodium acetate buffer pH 5.0, by EDC/NHS coupling as described by the manufacturer. The capture system was regenerated by an injection at 20 μl/min with HBS buffer (100 mM HEPES pH 7.4, 1.5 M NaCl, 0.05% (w/v) Tween 20), followed by a 1 min 15 see injection with 10 mM NaOH and two 10 mM glycine buffer pH 2.5 injections for 1 min. Antibodies were captured were injected for 30 see at 10 μl/min at 80 nM concentration diluted in the respective system buffer. […] The analyte contact time was 3 min and the dissociation time was 10 min. Analyte kinetics were performed at 50 μl/min.
# (§2) The Biaevaluation software V.3.0 was used according to the instructions of the manufacturer GEHC. A 1:1 binding model with RMAX local was applied to determine kinetic rates.
# [2] = target: T1, human CCL8 (MCP2) - wild type (wt); assay: SPR (Biacore T200), 25 °C, ACES pH 7.4; antibody captured on anti-human IgG (Fc), chemokine injected at 5 nM and 20 nM
# Protocol: (§3) Biacore assay method: The binding of anti-CCL2 antibodies to the CCL homologs e.g. CCL2 (MCP-1), CCL8 (MCP-2), CCL7 (MCP-3), and CCL13 (MCP-4) were assessed at 25° C. using Biacore T200 instrument (GE Healthcare). Mouse anti-human IgG (Fc) (GE Healthcare) was immobilized on each flow cells of a CM4 sensor chip using amine coupling kit (GE Healthcare) according to the recommended settings by the manufacturer. Antibodies and analytes were diluted into ACES pH 7.4 buffer (20 mM ACES, 150 mM NaCl, 1 mg/ml BSA, 0.05% Tween 20, 0.005% NaN3). Antibodies were captured onto the anti-Fc sensor surfaces, then recombinant human CCL homologs proteins was injected over the flow cell at 5 nM and 20 nM. […] Sensor surface was regenerated each cycle with 3M MgCl2. Binding sensorgram was processed using Biacore T200 Evaluation software, version 2.0 (GE Healthcare).
# [3] = target: T3, human CCL7 (MCP3) - wild type (wt) (human, UniProt P80098 24-99); assay: as above
# T3 construct: Bought from R&D Systems for the homolog assay
# Protocol: as §3
# [4] = target: T4, human CCL2 (MCP1) - P8A variant (human, UniProt P13500 24-99); assay: SPR T200, 37 C, antibody captured, 1:1 model
# T4 construct: In-house point mutant that cannot dimerise; also called monomeric human CCL2; monomeric CCL2
# Protocol: (§4) Antibody clone supernatants were diluted 1:2 in system buffer and were captured for 1 min at 5 μl/min. […] Analyte kinetics were performed at 30 μl/min. As analyte in solution wt human CCL2 or monomeric CCL2 P8A variant CCL2 were used. Analytes were injected at 90 nM highest concentration. The analyte contact time was 3 min and the dissociation time was 10 min. The Biaevaluation software V.3.0 was used according to the instructions of the manufacturer GEHC. A 1:1 binding model with RMAX local was applied to apparently estimate kinetic rates.
# [5] = target: T2, human CCL2 (MCP1) - wild type (wt); assay: SPR T200, 37 C, antibody captured, 1:1 model
# Protocol: as §4
# [6] = target: T2, human CCL2 (MCP1) - wild type (wt); assay: SPR T200, 25 C, anti-human Fc capture, 1:1 model, pH 7.4
# Protocol: as §1, §2
# [7] = target: T2, human CCL2 (MCP1) - wild type (wt); assay: SPR T200, 25 C, anti-human Fc capture, 1:1 model, pH 8.3
# Protocol: as §1, §2
# [8] = target: T2, human CCL2 (MCP1) - wild type (wt); assay: SPR T200, 25 C, anti-human Fc capture, 1:1 model, pH 6.7
# [9] = target: T2, human CCL2 (MCP1) - wild type (wt); assay: cell-based or functional assay
# [10] = target: T2, human CCL2 (MCP1) - wild type (wt); assay: SPR T200, 25 C, anti-human Fc capture, 1:1 model, pH 7.9
# Protocol: as §1, §2
# [11] = target: T2, human CCL2 (MCP1) - wild type (wt); assay: cell-based or functional assay; remark: listed apart in the source
# [12] = target: T2, human CCL2 (MCP1) - wild type (wt); assay: SPR T200, 25 C, anti-human Fc capture, 1:1 model, pH 8.3; pH 8.3
# [13] = target: T2, human CCL2 (MCP1) - wild type (wt); assay: SPR T200, 25 C, anti-human Fc capture, 1:1 model, pH 6.3
# [14] = target: T2, human CCL2 (MCP1) - wild type (wt); assay: SPR T200, 25 C, anti-human Fc capture, 1:1 model, pH 5.5
# Protocol: as §1, §2
# [15] = target: T2, human CCL2 (MCP1) - wild type (wt); assay: SPR T200, 25 C, anti-human Fc capture, 1:1 model, pH 5.9
# Protocol: as §1, §2
binder,measurement,setting,value
"Humanized 11K2 (=11K2) (antibody, IgG1, V domains shown, IgG1 with kappa light chain; also called CCL2-0002; humanized 11k2 IgG1) VH: QVQLVQSGAEVKKPGSSVKVSCKASGLTISDTYMHWVRQAPGQGLEWMGRIDPANGNTKFDPKFQGRVTITADTSTSTAYMELSSLRSEDTAVYYCARGVFGFFDYWGQGTTVTVSS VL: DIQMTQSPSSLSASVGDRVTITCKATEDIYNRLAWYQQKPGKAPKLLISGATSLETGVPSRFSGSGSGTDYTLTISSLQPEDFATYYCQQFWSAPYTFGGGTKVEIK",Kd,[1],10 pM
same,t 1/2-diss.,[1],3.58 h
same,binding result,[2],binds
same,binding result,[3],no binding (tested: 20 nM)
same,Kd,[4],35 pM
same,T1/2,[4],1.93 h
same,Kd,[5],28 pM
same,T1/2,[5],1.97 h
same,Kd,[6],20 pM
same,t 1/2-diss.,[6],2.72 h
same,t 1/2-diss.,[7],19.2 h
same,Kd,[8],10 pM
same,t 1/2-diss.,[8],4.87 h
same,THP1 chemotaxis [fold change compared to IgG control],[9],7.2 fold
same,Kd,[10],20 pM
same,t 1/2-diss.,[10],2.75 h
same,"IC50, inhibition of THP-1 migration (chemotaxis assay)",[11],0.7 µg/mL
same,Kd,[12],≤ 3 pM
same,Kd,[13],3 pM
same,t 1/2-diss.,[13],19.2 h
same,Kd,[14],10 pM
same,t 1/2-diss.,[14],1.97 h
same,Kd,[15],10 pM
same,t 1/2-diss.,[15],4.78 h
